± gives the uncertainty stated by the source.
B1: POU domain, class 6, transcription factor 2, residues 609 to 663; numbered along this chain, P78424 (parent)
chain: KRRTSFTPQALEILNAHFEKNTHPSGQEMTEIAEKLNYDREVVRVWFCNKRQALK

Variants of: B1
Assay: abundance fitness (aPCA) (normalised: wild type 0, dead -1); higher = more abundant; growth selection in yeast, the domain comes from the species named
Conditions: Homo sapiens

Row | Variant | abundance fitness
1 | KRRTSFTPQALEILNAHFEKNTHPSGKEMTEIAEKLNYDREVVRVWFCNKRQALK [Q27K] | 0.131 ± 0.15
2 | KRRTSFTPQALEILNAHFEKNTHPSGFEMTEIAEKLNYDREVVRVWFCNKRQALK [Q27F] | -0.737 ± 0.41
3 | KRRTSFTPQALEILNAHFEKNTHPSGPEMTEIAEKLNYDREVVRVWFCNKRQALK [Q27P] | -0.005 ± 0.17
4 | KRRTSFTPQALEILNAHFEKNTHPSGHEMTEIAEKLNYDREVVRVWFCNKRQALK [Q27H] | 0.243 ± 0.25
5 | KRRTSFTPQALEILNAHFEKNTHPSGIEMTEIAEKLNYDREVVRVWFCNKRQALK [Q27I] | 0.091 ± 0.16
6 | KRRTSFTPQALEILNAHFEKNTHPSGLEMTEIAEKLNYDREVVRVWFCNKRQALK [Q27L] | 0.064 ± 0.085
7 | KRRTSFTPQALEILNAHFEKNTHPSGAEMTEIAEKLNYDREVVRVWFCNKRQALK [Q27A] | -0.063 ± 0.097
8 | KRRTSFTPQALEILNAHFEKNTHPSGGEMTEIAEKLNYDREVVRVWFCNKRQALK [Q27G] | -0.063 ± 0.066
9 | KRRTSFTPQALEILNAHFEKNTHPSGDEMTEIAEKLNYDREVVRVWFCNKRQALK [Q27D] | 0.25 ± 0.15
10 | KRRTSFTPQALEILNAHFEKNTHPSGEEMTEIAEKLNYDREVVRVWFCNKRQALK [Q27E] | 0.05 ± 0.11
11 | KRRTSFTPQALEILNAHFEKNTHPSGNEMTEIAEKLNYDREVVRVWFCNKRQALK [Q27N] | -0.106 ± 0.18
12 | KRRTSFTPQALEILNAHFEKNTHPSGMEMTEIAEKLNYDREVVRVWFCNKRQALK [Q27M] | -0.39 ± 0.16
13 | KRRTSFTPQALEILNAHFEKNTHVSGQEMTEIAEKLNYDREVVRVWFCNKRQALK [P24V] | -0.386 ± 0.058
14 | KRRTSFTPQALEILNAHFEKNTHWSGQEMTEIAEKLNYDREVVRVWFCNKRQALK [P24W] | -0.317 ± 0.067
15 | KRRTSFTPQALEILNAHFEKNTHYSGQEMTEIAEKLNYDREVVRVWFCNKRQALK [P24Y] | -0.805 ± 0.15
16 | KRRTSFTPQALEILNAHFEKNTHPIGQEMTEIAEKLNYDREVVRVWFCNKRQALK [S25I] | -0.355 ± 0.17
17 | KRRTSFTPQALEILNAHFEKNTHPTGQEMTEIAEKLNYDREVVRVWFCNKRQALK [S25T] | 0.003 ± 0.17
18 | KRRTSFTPQALEILNAHFEKNTHPMGQEMTEIAEKLNYDREVVRVWFCNKRQALK [S25M] | -0.313 ± 0.27
19 | KRRTSFTPQALEILNAHFEKNTHPWGQEMTEIAEKLNYDREVVRVWFCNKRQALK [S25W] | -0.92 ± 0.21
20 | KRRTSFTPQALEILNAHFEKNTHPFGQEMTEIAEKLNYDREVVRVWFCNKRQALK [S25F] | -0.515 ± 0.18
21 | KRRTSFTPQALEILNAHFEKNTHPHGQEMTEIAEKLNYDREVVRVWFCNKRQALK [S25H] | 0.073 ± 0.26
22 | KRRTSFTPQALEILNAHFEKNTHPAGQEMTEIAEKLNYDREVVRVWFCNKRQALK [S25A] | -0.185 ± 0.12
23 | KRRTSFTPQALEILNAHFEKNTHPYGQEMTEIAEKLNYDREVVRVWFCNKRQALK [S25Y] | -0.872 ± 0.24
24 | KRRTSFTPQALEILNAHFEKNTHPCGQEMTEIAEKLNYDREVVRVWFCNKRQALK [S25C] | -0.232 ± 0.16

Row | Variant | abundance fitness
25 | KRRTSFTPQALEILNAHFEKNTHPDGQEMTEIAEKLNYDREVVRVWFCNKRQALK [S25D] | -0.17 ± 0.18
26 | KRRTSFTPQALEILNAHFEKNTHPRGQEMTEIAEKLNYDREVVRVWFCNKRQALK [S25R] | -0.125 ± 0.092
27 | KRRTSFTPQALEILNAHFEKNTHPVGQEMTEIAEKLNYDREVVRVWFCNKRQALK [S25V] | -0.207 ± 0.098
28 | KRRTSFTPQALEILNAHFEKNTHPGGQEMTEIAEKLNYDREVVRVWFCNKRQALK [S25G] | -0.051 ± 0.098
29 | KRRTSFTPQALEILNAHFEKNTHPLGQEMTEIAEKLNYDREVVRVWFCNKRQALK [S25L] | -0.213 ± 0.098
30 | KRRTSFTPQALEILNAHFEKNTHPQGQEMTEIAEKLNYDREVVRVWFCNKRQALK [S25Q] | -0.313 ± 0.25
31 | KRRTSFTPQALEILNAHFEKNTHPEGQEMTEIAEKLNYDREVVRVWFCNKRQALK [S25E] | -0.383 ± 0.2
32 | KRRTSFTPQALEILNAHFEKNTHPNGQEMTEIAEKLNYDREVVRVWFCNKRQALK [S25N] | -0.073 ± 0.19
33 | KRRTSFTPQALEILNAHFEKNTHPSRQEMTEIAEKLNYDREVVRVWFCNKRQALK [G26R] | -0.032 ± 0.08
34 | KRRTSFTPQALEILNAHFEKNTHPSMQEMTEIAEKLNYDREVVRVWFCNKRQALK [G26M] | -0.078 ± 0.15
35 | KRRTSFTPQALEILNAHFEKNTHPSAQEMTEIAEKLNYDREVVRVWFCNKRQALK [G26A] | 0.035 ± 0.11
36 | KRRTSFTPQALEILNAHFEKNTHPSQQEMTEIAEKLNYDREVVRVWFCNKRQALK [G26Q] | -0.415 ± 0.23
37 | KRRTSFTPQALEILNAHFEKNTHPSSQEMTEIAEKLNYDREVVRVWFCNKRQALK [G26S] | -0.08 ± 0.12
38 | KRRTSFTPQALEILNAHFEKNTHPSVQEMTEIAEKLNYDREVVRVWFCNKRQALK [G26V] | 0.073 ± 0.097
39 | KRRTSFTPQALEILNAHFEKNTHPSWQEMTEIAEKLNYDREVVRVWFCNKRQALK [G26W] | 0.119 ± 0.1
40 | KRRTSFTPQALEILNAHFEKNTHPSKQEMTEIAEKLNYDREVVRVWFCNKRQALK [G26K] | -0.114 ± 0.14
41 | KRRTSFTPQALEILNAHFEKNTHPSEQEMTEIAEKLNYDREVVRVWFCNKRQALK [G26E] | 0.119 ± 0.13
42 | KRRTSFTPQALEILNAHFEKNTHPSPQEMTEIAEKLNYDREVVRVWFCNKRQALK [G26P] | -0.004 ± 0.18
43 | KRRTSFTPQALEILNAHFEKNTHPSLQEMTEIAEKLNYDREVVRVWFCNKRQALK [G26L] | -0.054 ± 0.1
44 | KRRTSFTPQALEILNAHFEKNTHPSIQEMTEIAEKLNYDREVVRVWFCNKRQALK [G26I] | -0.02 ± 0.18
45 | KRRTSFTPQALEILNAHFEKNTHPSTQEMTEIAEKLNYDREVVRVWFCNKRQALK [G26T] | 0.03 ± 0.17
46 | KRRTSFTPQALEILNAHFEKNTHPSNQEMTEIAEKLNYDREVVRVWFCNKRQALK [G26N] | -0.041 ± 0.46
47 | KRRTSFTPQALEILNAHFEKNTHPSCQEMTEIAEKLNYDREVVRVWFCNKRQALK [G26C] | -0.027 ± 0.13
48 | KRRTSFTPQALEILNAHFEKNTHPSFQEMTEIAEKLNYDREVVRVWFCNKRQALK [G26F] | -0.173 ± 0.21
